The target in one assay is HLA-A*01:01. Put plainly: IEDB peptide-MHC binding, purified MHC/competitive/fluorescence; ≥ and ≤ were set here for values at or beyond the usual limits of such assays.
The target in assay [1] is HLA-B*15:01. Put plainly: IEDB peptide-MHC binding, purified MHC/direct/fluorescence; filed as Kd, often an IC50 or EC50 that approximates it; ≥ and ≤ were set here for values at or beyond the usual limits of such assays. Particulars: source organism: Vibrio cholerae O1 biovar El Tor.
In another assay the target is HLA-A*02:19. Described as above. The conditions noted are these: source organism: Vibrio cholerae O1 biovar El Tor.
In assay [2] the target is HLA-B*51:01. The description is as above. Particulars: source organism: Vibrio cholerae O1 biovar El Tor.
Another assay has as its target HLA-A*26:01. The description is as above. The conditions noted are these: source organism: Vibrio cholerae O1 biovar El Tor.
Assay [3] addresses HLA-A*03:01. The assay is described as above. Particulars: source organism: Vibrio cholerae O1 biovar El Tor.
In the next assay the target is HLA-C*03:03. Described as above.
The target of assay [4] is HLA-B*18:01. The description is as above. The conditions noted are these: source organism: Vibrio cholerae O1 biovar El Tor.
In a further assay the target is HLA-B*27:03. Described as above. Particulars: source organism: Vibrio cholerae O1 biovar El Tor.
The next assay deals with HLA-C*08:02. The description is as above.
Another assay addresses HLA-B*46:01. The description is as above. Particulars: source organism: Vibrio cholerae O1 biovar El Tor.
Assay [5] deals with HLA-B*15:01. In words: IEDB peptide-MHC binding, purified MHC/competitive/fluorescence; filed as Kd, often an IC50 or EC50 that approximates it; ≥ and ≤ were set here for values at or beyond the usual limits of such assays. Particulars: source organism: Homo sapiens.
Assay [6] deals with HLA-B*51:01. Described as above. The conditions noted are these: source organism: Homo sapiens.
Assay [7] deals with HLA-B*18:01. Described as above. Particulars: source organism: Homo sapiens.
The target in another assay is HLA-A*02:01. The description is as above.
The target in assay [8] is HLA-B*07:02. Put plainly: IEDB peptide-MHC binding, purified MHC/direct/fluorescence; filed as Kd, often an IC50 or EC50 that approximates it; ≥ and ≤ were set here for values at or beyond the usual limits of such assays. The conditions noted are these: source organism: Macaca fascicularis.
For a further assay, the target named is HLA-C*12:03. Described as above.
In a further assay the target is HLA-B*39:01. Put plainly: IEDB peptide-MHC binding, purified MHC/competitive/fluorescence; filed as Kd, often an IC50 or EC50 that approximates it; ≥ and ≤ were set here for values at or beyond the usual limits of such assays. Particulars: source organism: Escherichia coli 536.
In the next assay the target is HLA-B*40:01. The description is as above. The conditions noted are these: source organism: Escherichia coli 536.
The target of the next assay is HLA-B*35:01. In words: IEDB peptide-MHC binding, purified MHC/competitive/radioactivity; filed as Kd, often an IC50 or EC50 that approximates it; ≥ and ≤ were set here for values at or beyond the usual limits of such assays. Particulars: source organism: Vaccinia virus WR.
For another assay, the target named is HLA-A*11:01. The description is as above. Particulars: source organism: Vaccinia virus WR.
The target in another assay is HLA-B*54:01. The description is as above. The conditions noted are these: source organism: Vaccinia virus WR.
Assay [9] deals with HLA-B*07:02. The description is as above. The conditions noted are these: source organism: Vaccinia virus WR.
In the next assay the target is HLA-A*31:01. Described as above. The conditions noted are these: source organism: Vaccinia virus WR.
A further assay addresses HLA-A*68:01. The description is as above. Particulars: source organism: Vaccinia virus WR.
For assay [10], the target named is HLA-B*51:01. The assay is described as above. The conditions noted are these: source organism: Vaccinia virus WR.
The target of a further assay is HLA-B*53:01. The assay is described as above. Particulars: source organism: Vaccinia virus WR.
Assay [11] addresses HLA-A*03:01. The assay is described as above. Particulars: source organism: Vaccinia virus WR.
In another assay the target is HLA-A*33:01. The assay is described as above. The conditions noted are these: source organism: Vaccinia virus WR.
Assay [12] deals with HLA-B*15:01. Put plainly: IEDB peptide-MHC binding, purified MHC/competitive/fluorescence; ≥ and ≤ were set here for values at or beyond the usual limits of such assays. The conditions noted are these: source organism: Vaccinia virus Copenhagen.
Where [13] appears, read: source organism: Vibrio cholerae B33.
[14] abbreviates: source organism: Vaccinia virus Copenhagen.

For orientation: IC50 means the concentration that gives 50% inhibition. Lower therefore signals higher potency. In turn, SSDPGTNTT came in with an IC50 in the assay with HLA-A*01:01 (source organism: Zaire ebolavirus) not below 162 µM.
A word on the Kd: it is the free concentration of one partner at which half of the binding sites on the other are occupied at equilibrium, for simple one-to-one binding. Regarding FATPAFFLI, the Kd in the assay with HLA-B*15:01 [1] was not below 20 µM; with HLA-A*02:19 it was not below 20 µM; with HLA-B*51:01 [2], 0.859 µM; with HLA-A*26:01, not below 20 µM; in the assay with HLA-A*03:01 [3], not below 20 µM; with HLA-C*03:03 (setting [13]), not above 0.001 µM. Besides, the equilibrium dissociation constant (Kd) is not below 20 µM with HLA-B*18:01 [4], not below 20 µM with HLA-B*27:03, 0.198 µM with HLA-C*08:02 (setting [13]) and not below 20 µM with HLA-B*46:01.
With FAAPHRGVA, the Kd with HLA-B*15:01 [5] was not below 20 µM; in the assay with HLA-B*51:01 [6], not below 20 µM; with HLA-B*18:01 [7], not below 20 µM; with HLA-A*02:01 (source organism: Homo sapiens), not below 20 µM; with HLA-B*07:02 [8], 0.0031 µM; in the assay with HLA-C*12:03 (source organism: Homo sapiens) it was not above 0.001 µM.
Turning to EEQQSMLAL, the Kd with HLA-B*39:01 worked out at 0.027 µM; in the assay with HLA-B*40:01 it was 0.0083 µM.
As to RVYEALYYV, the Kd in the assay with HLA-B*35:01 was not below 77.4 µM; with HLA-A*11:01 it was 0.0802 µM; with HLA-B*54:01, 6.41 µM; in the assay with HLA-B*07:02 [9] it was not below 53.8 µM; with HLA-A*31:01, 0.0137 µM; with HLA-A*68:01, not below 77.7 µM. In addition, the Kd is not below 67.8 µM in the assay with HLA-B*51:01 [10]; not below 78.2 µM with HLA-B*53:01; 0.717 µM with HLA-A*03:01 [11]; not below 77.7 µM with HLA-A*33:01; 0.0008 µM with HLA-A*02:01 (setting [14]); 0.026 µM with HLA-C*12:03 (setting [14]). Besides, the dissociation constant (Kd) with HLA-C*03:03 (setting [14]) was 1.25 µM; in the assay with HLA-C*08:02 (setting [14]), not below 20 µM.
With YVTLNASQY, the Kd is 1.12 µM with HLA-A*11:01; not below 51.4 µM with HLA-A*31:01; 0.0107 µM with HLA-A*68:01; 4.77 µM with HLA-A*03:01 [11]; not below 77.7 µM in the assay with HLA-A*33:01. The IC50 came out at 8.06 µM with HLA-B*15:01 [12] and 17.1 µM with HLA-A*01:01 (setting [14]).

Source of the values: the Immune Epitope Database (IEDB).
